Laboratory results: publication PMC8864165, “Functional Effects of ARV-1502 Analogs Against Bacterial Hsp70 and Implications for Antimicrobial Activity” (Frontiers in Chemistry, 2022)
Square brackets hold non-standard residues; d marks the D form. Ends that are not written are not given here. Cf = 5(6)-carboxyfluorescein label; Ac6c = NC1(C(=O)O)CCCCC1

T1: S. aureus GrpE (Staphylococcus aureus, UniProt P99086 1-208)
T1 construct: source: E. coli (DE3) Rosetta pLysS, purified (IMAC, TEV cleavage, second IMAC)
T1 sequence: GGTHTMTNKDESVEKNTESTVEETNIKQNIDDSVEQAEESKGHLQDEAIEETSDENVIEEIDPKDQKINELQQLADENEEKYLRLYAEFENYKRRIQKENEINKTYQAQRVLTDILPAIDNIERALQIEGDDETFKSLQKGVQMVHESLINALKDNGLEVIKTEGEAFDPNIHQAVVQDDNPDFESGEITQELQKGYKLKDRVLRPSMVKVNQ

T2: E. coli DnaJ (Escherichia coli, UniProt P08622 1-376)
T2 construct: source: E. coli (DE3) Rosetta pLysS, purified (IMAC, TEV cleavage, second IMAC)
T2 sequence: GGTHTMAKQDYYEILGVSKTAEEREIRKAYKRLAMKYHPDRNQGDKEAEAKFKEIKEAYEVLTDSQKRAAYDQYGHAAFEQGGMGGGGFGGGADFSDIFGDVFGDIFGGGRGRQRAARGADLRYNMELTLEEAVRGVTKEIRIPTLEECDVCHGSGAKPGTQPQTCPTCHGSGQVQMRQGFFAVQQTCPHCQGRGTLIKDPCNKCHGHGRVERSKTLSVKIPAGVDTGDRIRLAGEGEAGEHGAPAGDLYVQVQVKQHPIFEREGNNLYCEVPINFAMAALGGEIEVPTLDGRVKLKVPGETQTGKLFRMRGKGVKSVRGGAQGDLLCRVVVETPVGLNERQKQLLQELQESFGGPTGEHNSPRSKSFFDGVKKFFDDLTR

T3: E. coli GrpE (Escherichia coli, UniProt P09372 1-197)
T3 construct: also called co-chaperone GrpE; nucleotide exchange factor GrpE; source: E. coli (DE3) Rosetta pLysS, purified (IMAC, TEV cleavage, second IMAC)
T3 sequence: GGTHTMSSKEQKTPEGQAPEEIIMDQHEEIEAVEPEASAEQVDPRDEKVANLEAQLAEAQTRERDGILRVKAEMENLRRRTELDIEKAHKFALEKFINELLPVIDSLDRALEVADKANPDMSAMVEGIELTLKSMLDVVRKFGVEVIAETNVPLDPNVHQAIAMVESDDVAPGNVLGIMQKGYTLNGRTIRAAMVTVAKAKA


Assays:
S. aureus GrpE = target: T1, S. aureus GrpE; assay: fluorescence polarisation; direct titration: protein serially diluted twofold in 23 steps, Cf-labeled peptide added (20 µL of 40 nmol/L to 20 µL); FP-buffer 20 mmol/L Tris-HCl, 150 mmol/L KCl, 5 mmol/L MgCl2, 1 mmol/L NaN3, 2 mmol/L DTT, pH 7.5; 2 h, 28°C, dark; settings: both partners purified
E. coli DnaJ = target: T2, E. coli DnaJ; assay: as above; settings: both partners purified
E. coli GrpE = target: T3, E. coli GrpE; assay: as above; settings: both partners purified
S. aureus DnaK [1] = target: T4, S. aureus DnaK (Staphylococcus aureus, UniProt P99110 1-610); assay: as above; settings: both partners purified
T4 construct: source: E. coli (DE3) Rosetta pLysS, purified (IMAC, TEV cleavage, second IMAC)

E. coli DnaK [2] = target: T5, E. coli DnaK (Escherichia coli, UniProt P0A6Y8 1-638); assay: as above; settings: both partners purified
T5 construct: source: E. coli (DE3) Rosetta pLysS, purified (IMAC, TEV cleavage, second IMAC)

[3] = target: T6, S. aureus DnaK/DnaJ/GrpE-chaperone system (Staphylococcus aureus, UniProt P99110 1-610; P63971 1-379; P99086 1-208); assay: fluorescence polarisation; as the direct titration, but with the full chaperone system: DnaK, DnaJ and GrpE (ratio 0.6:1.0:0.9) pre-incubated for 30 min at room temperature; settings: both partners purified
T6 construct: also called full chaperone system (S. aureus); source: E. coli (DE3) Rosetta pLysS, each purified; mixed (ratio 0.6:1.0:0.9) and pre-incubated for 30 min at room temperature

[4] = target: T7, E. coli DnaK/DnaJ/GrpE-chaperone system (Escherichia coli, UniProt P0A6Y8 1-638; P08622 1-376; P09372 1-197); assay: as above; settings: both partners purified
T7 construct: also called full chaperone system (E. coli); source: E. coli (DE3) Rosetta pLysS, each purified; mixed (ratio 0.6:1.0:0.9) and pre-incubated for 30 min at room temperature

S. aureus DnaK [5] = target: T4, S. aureus DnaK; assay: fluorescence polarisation; competition screen at one concentration: unlabeled peptide 5 µmol/L with 5 µmol/L E. coli DnaK, or 35 µmol/L with 16 µmol/L S. aureus DnaK, 90 min 28°C, then Cf-ARV-1502 (10 µL of 80 nmol/L), 90 min 28°C; duplicates; FP normalized to ARV-1502; settings: both partners purified
E. coli DnaK [6] = target: T5, E. coli DnaK; assay: as above; settings: both partners purified
E. coli DnaK [7] = target: T5, E. coli DnaK; assay: cell-based or functional assay

Binder | Kd (S. aureus DnaK [1]) [µM] | Kd [3] [µM] | Kd [4] [µM] | binding result (S. aureus DnaK [5]) | binding result (E. coli DnaK [6]) | also measured
Cf-RPDKPRPYLPRPRPPRPVR (also called 5(6)-carboxyfluorescein-labeled ARV-1502; source: synthetic peptide, in-house (Fmoc/tBu chemistry on Rink amide resin), RP-HPLC purified) [Cf-ARV-1502] | 25.1 | 30.2 | 3.1 |  |  | Kd (S. aureus GrpE): ~138 µM; Kd (E. coli DnaJ): ~33.4 µM; Kd (E. coli GrpE): ~213 µM; Kd (E. coli DnaK [2]): 0.2 µM
[Ac6c]RPFFPRPYLPRKRPPRPVR-NH2 (source: synthetic peptide, bought: ABclonal, Inc) [peptide 105] |  |  |  | binds | binds | 
Cf-RPFFPRPYLPLPRPPRPVR (source: synthetic peptide, in-house (Fmoc/tBu chemistry on Rink amide resin), RP-HPLC purified) [Cf-peptide 102] | 1.6 | 1.6 | 0.6 |  |  | 
[Ac6c]RPFFPRPYLPFPRPPRPVR-NH2 (source: synthetic peptide, bought: ABclonal, Inc) [peptide 103] |  |  |  | binds | binds | 
[Ac6c]RPKKPRPYLPRLRPPRPVR-NH2 (N-terminus assumed; SMILES CC(C)C[C@H](NC(=O)[C@H](CCCNC(=N)N)NC(=O)[C@@H]1CCCN1C(=O)[C@H](CC(C)C)NC(=O)[C@H](Cc1ccc(O)cc1)NC(=O)[C@@H]1CCCN1C(=O)[C@H](CCCNC(=N)N)NC(=O)[C@@H]1CCCN1C(=O)[C@H](CCCCN)NC(=O)[C@H](CCCCN)NC(=O)[C@@H]1CCCN1C(=O)[C@H](CCCNC(=N)N)NC(=O)C1(N)CCCCC1)C(=O)N[C@@H](CCCNC(=N)N)C(=O)N1CCC[C@H]1C(=O)N1CCC[C@H]1C(=O)N[C@@H](CCCNC(=N)N)C(=O)N1CCC[C@H]1C(=O)N[C@H](C(=O)N[C@@H](CCCNC(=N)N)C(N)=O)C(C)C, source: synthetic peptide, bought: ABclonal, Inc) [peptide 45] |  |  |  | binds | binds | 
[Ac6c]RPDKPRPYLPRPRPPRPVR-NH2 (N-terminus assumed; SMILES CC(C)C[C@H](NC(=O)[C@H](Cc1ccc(O)cc1)NC(=O)[C@@H]1CCCN1C(=O)[C@H](CCCNC(=N)N)NC(=O)[C@@H]1CCCN1C(=O)[C@H](CCCCN)NC(=O)[C@H](CC(=O)O)NC(=O)[C@@H]1CCCN1C(=O)[C@H](CCCNC(=N)N)NC(=O)C1(N)CCCCC1)C(=O)N1CCC[C@H]1C(=O)N[C@@H](CCCNC(=N)N)C(=O)N1CCC[C@H]1C(=O)N[C@@H](CCCNC(=N)N)C(=O)N1CCC[C@H]1C(=O)N1CCC[C@H]1C(=O)N[C@@H](CCCNC(=N)N)C(=O)N1CCC[C@H]1C(=O)N[C@H](C(=O)N[C@@H](CCCNC(=N)N)C(N)=O)C(C)C) [ARV-1502] |  |  |  |  |  | refolding activity of the E. coli DnaK/DnaJ/GrpE-chaperone system (denatured luciferase refolding assay) at ARV-1502 concentrations ≥50 µmol/L, relative to no peptide (E. coli DnaK [7]): ~60%
